Laboratory results reported in patent JP2016135753A.

Target: SLA-1*0401/β2M (HEK293トランスフェクタント細胞表面) (pig) (UniProt Q07717)
Assay: flow cytometry of hybridoma supernatant on SLA-1*0401/β2M HEK293 transfectants

B1: モノクローナル抗体X2F6 (antibody, mouse IgG2a, kappa, V domains shown)
VH: QVQLQQSGAELVKPGASVKLSCKASGYTFTSYDINWVRQRPEQGLEWIGWIYPGDGSTKYNEKFKGKATLTTDKSSSTAYMQLSRLTSEDSAVYFCASPYYYGSSPFAYWGQGTLVTVSA
VL: DIQMTQSPASLSASVGETVTITCRASENIYSYLAWYQQKQGKSPQLLVYNAKTLAEGVPSRFSGSGSGTQFSLKINSLQPEDFGSYYCQHHYGTPRTFGGGTKLEIKR
- 平均蛍光強度(MFI): 3000
